Results on two molecules are retold here after publication doi:10.1101/2024.05.17.594765.

The target of assay [1] is T1, C-terminally Halo-tagged full-length zyxin (zyxin-Halo), Q15942.
T1 chain: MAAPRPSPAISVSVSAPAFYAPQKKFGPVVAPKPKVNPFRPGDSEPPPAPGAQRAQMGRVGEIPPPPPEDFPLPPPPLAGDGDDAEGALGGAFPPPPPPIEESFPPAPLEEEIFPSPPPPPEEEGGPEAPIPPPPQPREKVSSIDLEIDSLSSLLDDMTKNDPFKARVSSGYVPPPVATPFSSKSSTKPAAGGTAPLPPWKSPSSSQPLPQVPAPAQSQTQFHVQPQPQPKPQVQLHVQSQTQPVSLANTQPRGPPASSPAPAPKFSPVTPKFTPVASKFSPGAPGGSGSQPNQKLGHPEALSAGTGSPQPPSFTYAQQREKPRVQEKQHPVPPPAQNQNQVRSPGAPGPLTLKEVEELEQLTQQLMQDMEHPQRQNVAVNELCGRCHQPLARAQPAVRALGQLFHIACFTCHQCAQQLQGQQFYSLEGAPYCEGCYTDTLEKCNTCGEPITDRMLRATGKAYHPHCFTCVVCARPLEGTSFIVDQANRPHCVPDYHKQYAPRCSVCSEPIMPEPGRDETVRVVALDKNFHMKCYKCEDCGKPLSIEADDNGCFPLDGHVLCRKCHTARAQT
In words: force reconstitution TIRF assay. The conditions noted are these: chain shown with the change; images were acquired every 1 s; parent: est. 490; read off a plot.

The target of assay [2] is T2, zyxin mutant deficient in recruiting VASP, F(75, 97, 108, 118)A, Halo-tagged, Q15942.
T2 chain: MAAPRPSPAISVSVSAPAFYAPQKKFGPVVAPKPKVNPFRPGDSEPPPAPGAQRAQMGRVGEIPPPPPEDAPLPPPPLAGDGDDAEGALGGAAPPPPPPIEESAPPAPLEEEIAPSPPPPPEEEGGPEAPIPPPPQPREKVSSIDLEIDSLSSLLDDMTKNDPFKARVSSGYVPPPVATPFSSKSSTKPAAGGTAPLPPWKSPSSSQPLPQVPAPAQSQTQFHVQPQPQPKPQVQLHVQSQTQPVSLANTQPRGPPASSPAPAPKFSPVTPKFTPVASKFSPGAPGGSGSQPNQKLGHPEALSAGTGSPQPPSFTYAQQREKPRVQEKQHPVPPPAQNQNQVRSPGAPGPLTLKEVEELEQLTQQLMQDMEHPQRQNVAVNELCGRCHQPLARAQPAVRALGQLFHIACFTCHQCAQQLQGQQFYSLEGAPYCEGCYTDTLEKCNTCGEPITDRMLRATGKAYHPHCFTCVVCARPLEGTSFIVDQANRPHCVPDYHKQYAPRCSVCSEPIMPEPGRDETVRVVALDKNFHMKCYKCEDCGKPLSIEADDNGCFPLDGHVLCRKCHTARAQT
In words: force reconstitution TIRF assay. The conditions noted are these: chain shown with the change; images were acquired every 1 s; parent: est. 490; read off a plot.

B1: C-terminally Halo-tagged VASP (VASP-Halo), P50552 L226A; I231A; L235A; R273E; R274E; R275E; K276E (protein)
chain: SETVICSSRATVMLYDDGNKRWLPAGTGPQAFSRVQIYHNPTANSFRVVGRKMQPDQQVVINCAIVRGVKYNQATPNFHQWRDARQVWGLNFGSKEDAAQFAAGMASALEALEGGGPPPPPALPTWSVPNGPSPEEVEQQKRQQPGPSEHIERRVSNAGGPPAPPAGGPPPPPGPPPPPGPPPPPGLPPSGVPAAAHGAGGGPPPAPPLPAAQGPGGGGAGAPGAAAAAAGAKARKVSKQEEASGGPTAPKAESGRSGGGGLMEEMNAMLAEEEEATQVGEKTPKDESANQEEPEARVPAQSESVRRPWEKNSTTLPRMKSSSSVTTSETQPCTPSSSDYSDLQRVKQELLEEVKKELQKVKEEIIEAFVQELRKRGSP
In the case of B1, the other: Number of Binding Events (mean) in assay [1] came to 180.

B2: m6; m1 VASP:L226A; VASP:I231A; VASP:L235A; VASP:R273E; VASP:R274E; VASP:R275E; VASP:K276E; zyxin:F75A; zyxin:F97A; zyxin:F108A; zyxin:F118A (protein)
chain: SETVICSSRATVMLYDDGNKRWLPAGTGPQAFSRVQIYHNPTANSFRVVGRKMQPDQQVVINCAIVRGVKYNQATPNFHQWRDARQVWGLNFGSKEDAAQFAAGMASALEALEGGGPPPPPALPTWSVPNGPSPEEVEQQKRQQPGPSEHIERRVSNAGGPPAPPAGGPPPPPGPPPPPGPPPPPGLPPSGVPAAAHGAGGGPPPAPPLPAAQGPGGGGAGAPGAAAAAAGAKARKVSKQEEASGGPTAPKAESGRSGGGGLMEEMNAMLAEEEEATQVGEKTPKDESANQEEPEARVPAQSESVRRPWEKNSTTLPRMKSSSSVTTSETQPCTPSSSDYSDLQRVKQELLEEVKKELQKVKEEIIEAFVQELRKRGSP
Turning to B2, the other: Number of Binding Events (mean) in assay [2] came to 30.
